# B1: Arch 3 WT: Archaerhodopsin 3, light-driven proton pump from Halorubrum sodomense, used as fluorescent voltage indicator (protein)
# chain: MDPIALQAGYDLLGDGRPETLWLGIGTLLMLIGTFYFLVRGWGVTDKDAREYYAVTILVPGIASAAYLSMFFGIGLTEVTVGGEMLDIYYARYADWLFTTPLLLLDLALLAKVDRVTIGTLVGVDALMIVTGLIGALSHTAIARYSWWLFSTICMIVVLYFLATSLRSAAKERGPEVASTFNTLTALVLVLWTAYPILWIIGTEGAGVVGLGIETLLFMVLDVTAKVGFGFILLRSRAILGDTEAPEPSAGADVSAAD
# modifications: Halorubrum sodomense
# notes: Archaerhodopsin 3, light-driven proton pump from Halorubrum sodomense, used as fluorescent voltage indicator
# Columns and labels:
# [1] = system: cultured rat hippocampal neurons; assay: Optical recording of action potentials under whole cell current clamp; format: cell-based
# Excerpt: We tested Arch 3 as a voltage indicator in cultured rat hippocampal neurons, using viral delivery. […] Individual spikes were accompanied by clearly identifiable increases of fluorescence (FIG. 7A). At a 2 kHz image acquisition rate, the signal-to-noise ratio in the fluorescence (spike amplitude:baseline noise) was 10.5.
# Simultaneous fluorescence and whole-cell patch clamp recordings were acquired on a home-built, inverted epifluorescence microscope at room temperature. A diode laser operating at 100 mW, 640 nm (CrystaLaser, DL638-100-O) provided wide-field illumination at an intensity typically between 500-2000 W/cm^2. To minimize background signal from out-of-focus debris, illumination was often performed in through-the-objective total internal reflection fluorescence (TIRF) mode. Fluorescence emission was collected using a 60×, 1.45 NA oil immersion objective (Olympus), and separated from scattered excitation using a 660-760 nm bandpass emission filter (Chroma). For fast imaging of dynamic fluorescence responses and action potentials, images were acquired on an Andor iXon^+ 860 camera operating at up to 2,000 frames/s (using a small region of interest and pixel binning). Slower images with higher spatial resolution were acquired on an Andor iXon^+ 897 EMCCD. Custom software written in LabView (National Instruments) was used to synchronize illumination, collection of images, recording of membrane potential and cell current, and application of electrical stimuli to the cell.
# E18 rat hippocampi were purchased from BrainBits and mechanically dissociated in the presence of 1 mg/mL papain (Worthington) before plating at 5,000-30,000 cells per dish on poly-L-lysine and Matrigel-coated (BD Biosciences) glass-bottom dishes. Cells were incubated in N+ medium (100 mL Neurobasal medium, 2 mL B27 supplement, 0.5 mM glutamine, 25 μM glutamate, penicillin-streptomycin) for 3 hours. […]
# A spike identification algorithm was developed that could be applied either to electrically recorded V(t) or to optically determined V(t). […]
# [2] = Relative photostability of Arch 3 and eGFP in Arch 3-eGFP fusion; format: physicochemical
# Description: To perform a direct comparison of photostability of Arch 3 and eGFP we studied the photobleaching of the Arch 3-eGFP fusion. This strategy guaranteed a 1:1 stoichiometry of the two fluorophores, simplifying the analysis. The experiments were performed on permeabilized cells, in the microscope, with video recording as the cells photobleached. We first recorded a movie of photobleaching of Arch 3 under 640 nm illumination; then on the same field of view we recorded photobleaching of eGFP under 488 nm illumination, with illumination intensity adjusted to yield approximately the same initial count rate as for Arch 3. Fluorescence background levels were obtained from nearby protein-free regions of each movie and were subtracted from the intensity of the protein-containing regions. The area under each photobleaching timetrace was calculated, yielding an estimate of the total number of detected photons from each fluorophore. The eGFP emission (λmax=509 nm) and the Arch emission (λmax=687 nm) were collected through different emission filters, so the raw counts were corrected for the transmission spectra of the filters and the wavelength-dependent quantum yield of the EMCCD camera. The result was that the relative number of photons emitted prior to photobleaching for eGFP:Arch 3 WT was 3.9:1, and for eGFP:Arch D95N this ratio was 10:1.
# HEK cells = assay: Photocurrents under 640 nm illumination in voltage-clamped cells; format: cell-based, human
# Description: Measurements of photocurrents were performed on HEK cells held in voltage clamp at 0 mV while being exposed to brief (200 ms) pulses of illumination at 640 nm at an intensity of 1800 W/cm^2.
molecule,measurement,setting,value
B1,signal-to-noise ratio in the fluorescence (spike amplitude:baseline noise),[1]; 2 kHz image acquisition rate,10.5
same,false-positive rate,[1]; n=269 spikes,0.7%
same,change in resting potential or spike frequency during observation,[1]; up to 4 minutes of cumulative exposure,no detectable change in resting potential or spike frequency
same,photons prior to photobleaching relative to eGFP,[2],approximately 25%
same,photocurrents induced by imaging laser,"HEK cells; 640 nm, HEK cells",10-20 pA
same,photocurrent / photoinduced proton pumping,HEK cells; illumination at 640 nm,retains the photoinduced proton-pumping

# Reference: US9057734B2, “Optogenetic probes for measuring membrane potential” (President and Fellows of Harvard College, priority 2010, dated 2015)
